Residue numbers refer to the chain shown, from its start. Square brackets hold non-standard residues; d marks the D form. Ends that are not written are not given here.
Assays:
PapB = experiment: Enzymatic reactions of msPapA peptides with PapB (thioether crosslinking, U/HPLC-MS readout); format: biochemical; conditions: for extent of conversion to crosslinked peptide by PapB (in words): incubation with PapB, SAM and reductant, MS isotopic envelope; for substrate conversion: after 300 s; for substrate converted to crosslinked product: assessed from MS isotopic envelope after PapB
Description: Assays were conducted in a Coy Laboratories anaerobic chamber with 98% N2/2% H2 atmosphere at room temperature. All reactions contained 0.05 M PIPES·NaOH (pH 7.4), 2 mM DTT, 2.4 mM SAM (enzymatically synthesized and purified as previously described (deGruyter, J. N., et al. Biochem. 2017, 56 (30), 3863-3873)), ˜100-400 μM msPapA variants (concentration determined by peptide dry weight or by spectroscopic analysis in the case of Y19W), and […]-10 μM PapB. Either dithionite (dT) or flavodoxin (FldA), flavodoxin reductase (FPR) and NADPH were used to reduce PapB. For the assays that used chemical reductant, the total concentration was 2 mM dT. For the assays that used the biological reducing system, the mixtures contained 25 μM FldA, 2 μM FPR and 2 mM NADPH. The total volume of the reactions ranged from 0.1 mL for initial screenings to 0.5 mL for MS/MS Collision Induced Dissociation (CID) fragmentation experiments described below. Control reactions in the absence of dT, SAM and PapB were also conducted. Reactions were initiated with the addition of PapB and quenched at times ranging from 15 s to 2 h by the addition of 10% of the reaction volume of 30% (w/v) trichloroacetic acid (TCA, ACS grade). The samples were centrifuged at 16,000×g for 10 min in a microcentrifuge to pellet the precipitated PapB.
The assays were analyzed using either a Vanquish UHPLC with a diode-array detector connected to a Q-Exactive mass spectrometer or an Ultimate 3000 HPLC with a diode-array detector connected to a LTQ OrbiTrap XL mass spectrometer. Each was operated in positive ion mode, the FT analyzer was set to 100,000 resolution, 1 microscan, and 200 ms maximum injection time. Xcalibur software was used to analyze data. A 20 μL aliquot was injected onto a Hypersil GOLD C18 column (2.1 mm×150 mm, 1.9 μm particle size) (Thermo Fisher) pre-equilibrated in 0.1% (v/v) LC-MS Optima TFA (Fisher in LC-MS Optima water (Fisher). Chromatographic steps were carried out at 0.2 mL/min with buffer A containing 0.1% (v/v) TFA in Optima water and buffer B containing Optima grade acetonitrile with 0.1% (v/v) TFA. The separation consisted of washing with 100% A from 0 to 3 min, followed by a linear gradient from 100% to 0% A from 3 to 6 min, washing with 0% A from 6 to 10 min, and reequilibration with 100% A from 10 to 14 min. […]

Leader-AAACSANDACSANDA = tested on: T1, Leader-AAACSANDACSANDA
T1 sequence: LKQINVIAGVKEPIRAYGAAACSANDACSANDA

Leader-CDSNNAANA = tested on: T2, Leader-CDSNNAANA
T2 sequence: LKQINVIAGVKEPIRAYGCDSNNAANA

[1] = tested on: T3, minimal substrate PapA (msPapA)
T3 sequence: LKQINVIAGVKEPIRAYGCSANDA

Leader-AAACSACDAADA = tested on: T4, Leader-AAACSACDAADA
T4 sequence: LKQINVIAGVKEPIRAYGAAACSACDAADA

Leader-AAACSANDA = tested on: T5, Leader-AAACSANDA
T5 sequence: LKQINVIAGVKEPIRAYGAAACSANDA

Leader-CSDNNAAA = tested on: T6, Leader-CSDNNAAA
T6 sequence: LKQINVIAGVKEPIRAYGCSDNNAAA

Leader-^DDSAN^DCA = tested on: T7, Leader-^DDSAN^DCA
T7 sequence: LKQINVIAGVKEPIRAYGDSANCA

Leader-DSAN^DCA = tested on: T8, Leader-DSAN^DCA
T8 sequence: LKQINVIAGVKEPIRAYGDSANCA

leader-^DCSAN^DDA = tested on: T9, leader-^DCSAN^DDA
T9 sequence: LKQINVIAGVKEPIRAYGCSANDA

Leader-DSANCA = tested on: T10, Leader-DSANCA
T10 sequence: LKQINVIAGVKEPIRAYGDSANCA

Leader-AAACSAADAADA = tested on: T11, Leader-AAACSAADAADA
T11 sequence: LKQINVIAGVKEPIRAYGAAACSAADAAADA

Leader-AAAASACDAADA = tested on: T12, Leader-AAAASACDAADA
T12 sequence: T4 sequence with C22A

Leader-CSNDAAA = tested on: T13, Leader-CSNDAAA
T13 sequence: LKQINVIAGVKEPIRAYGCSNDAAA

leader-CSAN^DDA = tested on: T14, leader-CSAN^DDA
T14 sequence: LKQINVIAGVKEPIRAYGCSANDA

Leader-CSAAANDA = tested on: T15, Leader-CSAAANDA
T15 sequence: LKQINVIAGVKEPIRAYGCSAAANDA

Y17W msPapA = tested on: T16, Y17W msPapA
T16 sequence: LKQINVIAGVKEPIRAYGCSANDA

Leader-CSAANDA = tested on: T17, Leader-CSAANDA
T17 sequence: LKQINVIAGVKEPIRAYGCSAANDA

Leader-CSAAAANDA = tested on: T18, Leader-CSAAAANDA
T18 sequence: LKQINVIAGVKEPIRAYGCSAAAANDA

leader-^DCSANDA = tested on: T19, leader-^DCSANDA
T19 sequence: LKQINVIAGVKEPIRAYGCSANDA

Leader-^DDSANCA = tested on: T20, Leader-^DDSANCA
T20 sequence: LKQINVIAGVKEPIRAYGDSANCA

Question: LKQINVIAGVKEPIRAYGCDSNNAANA [CX0D] was tested. Which “extent of conversion to crosslinked peptide by PapB (in words)” value (“extent of conversion” for short) (PapB) did it give?
Answer: did not fully react

Question: LKQINVIAGVKEPIRAYGCSAAAANDA [CX6D] was tested. Which “extent of conversion” value (PapB) did it give?
Answer: did not fully react

Question: “LKQINVIAGVKEPIRAYGCSANDA [msPapA, reference compound]” was tested. Which “kinetics with dT relative to biological reducing system” value (PapB; 430 nM PapB, 191 μM peptide) did it give?
Answer: roughly 3 fold

Question: What about the substrate conversion (PapB; biological reducing system (FldA/FPR/NADPH)) of the same substance?
Answer: 100%

Question: What about the substrate conversion (PapB; chemical reducing system (dT)) of the same substance?
Answer: 100%

Question: And the “turnover number (approximation of kcat for PapB)” value (PapB; dithionite (dT) as reductant, 430 nM PapB, 191 μM peptide, linear portion of curve, FIG. 5 names Y17W msPapA)?
Answer: 7.4 ± 0.1 s⁻¹

Question: What about the “extent of conversion” value (PapB) of the same substance?
Answer: complete conversion

Question: With “LKQINVIAGVKEPIRAYGCSAN^DDA [leader-CSAN^DDA]” as the substance, how does the “extent of conversion” value (PapB) read?
Answer: conversion is not complete

Question: Which “substrate converted to crosslinked product” value (PapB) does the source give for “LKQINVIAGVKEPIRAYGENLYFQ^DFCF^DWKTET [octreotide analog]” here?
Answer: ~75%

Question: How did the “substrate converted to crosslinked product” value (PapB) turn out when “LKQINVIAGVKEPIRAYGPCSAN^DDA [leader-^DCSAN^DDA]” was run?
Answer: ≥ 15%

Question: And the “extent of conversion” value (PapB)?
Answer: processed inefficiently

Question: Which “extent of conversion” value (PapB) does the source give for “LKQINVIAGVKEPIRAYG^DCSANDA (LKQINVIAGVKEPIRAYG[dC]SANDA) [leader-^DCSANDA]” here?
Answer: full conversion

Question: With PapB as the substance, how does the “thioether crosslinking (loss of 4 Da, MS)” value (Leader-AAACSANDACSANDA) read?
Answer: all the peptides that were examined were efficiently crosslinked by the enzyme

Question: And the “thioether crosslinking (loss of 2 Da, MS)” value (Leader-CDSNNAANA)?
Answer: CX0D (FIG. 8B) and CX6D (FIG. 8C) did not fully react--suggesting that PapB does not processes these motifs efficiently

Question: And the “thioether crosslinking (loss of 2 Da, HR-MS)” value [1]?
Answer: complete conversion of msPapA to a singly crosslinked peptide is routinely observed using 0.1 nmol PapB and 20 mmol msPapA in 5 min

Question: What about the “thioether crosslinking (loss of 2 Da, MS)” value [1] of the same substance?
Answer: the reactions with 1-5 intervening residues appear to go to completion

Question: And the “thioether crosslinking (loss of 4 Da, MS)” value (Leader-AAACSACDAADA)?
Answer: all the peptides that were examined were efficiently crosslinked by the enzyme

Question: And the “thioether crosslinking (loss of 2 Da, MS)” value (Leader-AAACSANDA)?
Answer: all the peptides that were examined were efficiently crosslinked by the enzyme

Question: And the “thioether crosslinking (loss of 2 Da, MS)” value (Leader-CSDNNAAA)?
Answer: the reactions with 1-5 intervening residues appear to go to completion

Question: And the “thioether crosslinking (MS)” value (Leader-^DDSAN^DCA)?
Answer: we were unable to observe any crosslinked product with the transposed peptides, either with L- or D-amino acids

Question: And the “thioether crosslinking (MS)” value (Leader-DSAN^DCA)?
Answer: we were unable to observe any crosslinked product with the transposed peptides, either with L- or D-amino acids

Question: What about the “substrate converted to crosslinked product (MS)” value (leader-^DCSAN^DDA) of the same substance?
Answer: at least ˜15% of the substrate is converted to product

Question: What about the “thioether crosslinking (MS)” value (Leader-DSANCA) of the same substance?
Answer: we were unable to observe any crosslinked product with the transposed peptides, either with L- or D-amino acids

Question: What about the “thioether crosslinking (loss of 2 Da, MS)” value (Leader-AAACSAADAADA) of the same substance?
Answer: all the peptides that were examined were efficiently crosslinked by the enzyme

Question: What about the “thioether crosslinking (loss of 2 Da, MS)” value (Leader-AAAASACDAADA) of the same substance?
Answer: all the peptides that were examined were efficiently crosslinked by the enzyme

Question: What about the “thioether crosslinking (loss of 2 Da, MS)” value (Leader-CSNDAAA) of the same substance?
Answer: the reactions with 1-5 intervening residues appear to go to completion

Question: And the “thioether crosslinking (loss of 2 Da, MS)” value (leader-CSAN^DDA)?
Answer: significant substrate turnover is observed as well, but the conversion is not complete

Question: And the “thioether crosslinking (loss of 2 Da, MS)” value (Leader-CSAAANDA)?
Answer: the reactions with 1-5 intervening residues appear to go to completion

Question: What about the “turnover number with dithionite (approximation of kcat)” value (Y17W msPapA) of the same substance?
Answer: 7.4±0.1 s^-1 with dT

Question: And the “turnover number with the biological reducing system FldA/FPR/NADPH (approximation of kcat)” value (Y17W msPapA)?
Answer: 2.6=0.2 s^-1 are estimated with the biological reducing system

Question: What about the “thioether crosslinking (loss of 2 Da, MS)” value (Leader-CSAANDA) of the same substance?
Answer: the reactions with 1-5 intervening residues appear to go to completion

Question: And the “thioether crosslinking (loss of 2 Da, MS)” value (Leader-CSAAAANDA)?
Answer: CX0D (FIG. 8B) and CX6D (FIG. 8C) did not fully react--suggesting that PapB does not processes these motifs efficiently

Question: What about the “thioether crosslinking (loss of 2 Da, MS)” value (leader-^DCSANDA) of the same substance?
Answer: full conversion to the crosslinked peptide is seen, as evidenced by the loss of 2 Da

Question: And the “thioether crosslinking (MS)” value (Leader-^DDSANCA)?
Answer: we were unable to observe any crosslinked product with the transposed peptides, either with L- or D-amino acids
